Results on two sequences are retold here after paper PMC3591269.

In the data set the target is MINI3 (WRKY10) (Arabidopsis) (UniProt Q9LG05). In words: competition. Conditions: 25 mM Hepes-KOH pH 7.2, 40 mM KCl, 1 mM DTT, 1 mM EDTA, 10% glycerol, 0.01 uM ZnCl2, 2 ug poly-dIdC, 3 ng probe, 1 ug protein in 20 ul; room temperature ….
Chain of MINI3 (WRKY10) (Arabidopsis) (Q9LG05 whole entry): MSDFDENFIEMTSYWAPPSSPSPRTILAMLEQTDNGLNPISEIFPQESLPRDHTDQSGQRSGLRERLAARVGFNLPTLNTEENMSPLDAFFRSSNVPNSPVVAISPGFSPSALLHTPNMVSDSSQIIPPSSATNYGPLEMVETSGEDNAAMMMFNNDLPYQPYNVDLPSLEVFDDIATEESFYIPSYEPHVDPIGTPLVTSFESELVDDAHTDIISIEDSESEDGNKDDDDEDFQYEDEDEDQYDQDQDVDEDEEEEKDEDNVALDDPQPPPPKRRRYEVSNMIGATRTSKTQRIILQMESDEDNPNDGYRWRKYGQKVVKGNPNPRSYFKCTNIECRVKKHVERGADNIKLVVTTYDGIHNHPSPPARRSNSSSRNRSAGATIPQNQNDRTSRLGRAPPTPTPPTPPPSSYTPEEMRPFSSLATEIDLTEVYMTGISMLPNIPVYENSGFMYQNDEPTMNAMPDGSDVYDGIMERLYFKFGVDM

In the case of “GACATTACTGTCATCGTATATGAAACATTATTCTAATAATTGTTATAAAAATACCGGAGTTAAACTAGATTGATTATCACCGAGATTTTATATTTGTCAAGATATATAGATGGTCCATCGAAAGGATTGGTGCTTCCAAAACCTTCGATGTCACCTCCTGA (double strand) [W3-box fragment (MINI3 promoter)]”, the binding result is “binds”.
Take “GACATTACTGTCATCGTATATGAAACATTATTCTAATAATTGTTATAAAAATACCGGAGTTAAACTAGATTGATTATCACCGAGATTTTATATTTGTCTAGATATATAGATGGTCCATCGAAAGGATTGGTGCTTCCAAAACCTTCGATGTCACCTCCTGA (double strand) [mW3-box fragment]”: the binding result is on record as “binds”.
